Data: publication PMC12217528, “Structural basis of topoisomerase targeting by delafloxacin” (Nature Communications, 2025)

B1: ParC55 breakage-reunion domain of S. pneumoniae topo IV (domain or fragment, Streptococcus pneumoniae)
chain: MSNIQNMSLEDIMGERFGRYSKYIIQDRALPDIRDGLKPVQRRILYSMNKDSNTFDKSYRKSAKSVGNIMGNFHPHGDSSIYDAMVRMSQNWKNREILVEMHGNNGSMDGDPPAAMRYTEARLSEIAGYLLQDIEKKTVPFAWNFDDTEKEPTVLPAAFPNLLVNGSTGISAGYATDIPPHNLAEVIDAAVYMIDHPTAKIDKLMEFLPGPDFPTGAIIQGRDEIKKAYETGKGRVVVRSKTEIEKLKGGKEQIVITEIPYEINKANLVKKIDDVRVNNKVAGIAEVRDESDRDGLRIAIELKKDANTELVLNYLFKYTDLQINYNFNMVAIDNFTPRQVGIVPILSSYIAHRREVILARSRFDKEKAEKRLHIVEGLIRVISILDEVIALIRASENKADAKENLKVSYDFTEEQAEAIVTLQLYRLTNTDVVVLQEEEAELREKIAMLAAIIGDERTMYNLMKKELREVKKKFATPRLSSLEDTAKALE
modifications: Y118 covalently linked to the 5′-phosphate of the cleaved DNA (phosphotyrosyl linkage)
notes: ParC55, the breakage-reunion domain of topoisomerase IV subunit ParC, S. pneumoniae; residues 247-734 of the printed fusion; In the crystals this domain stood on one chain with ParE30, joined through one extra histidine, as the fusion protein m1; also called ParC domains; ParC dimer; source: E. coli BL21(λDE3) pLysS, purified to >95% homogeneity (as part of the ParE30-ParC55 fusion protein)

How the values were obtained:
[1] = biological target: the molecule itself; experiment: crystal structure; ParE30-ParC55 fusion protein (4.5 mg/ml) mixed with 18-mer V-site or E-site duplex DNA at 1:1.2 molar ratio, 2 mM delafloxacin, 10 mM MgCl2; sitting-drop vapour diffusion, 50 mM sodium cacodylate, 62.5 mM KCl, 7.5 mM MgCl2, 2.5% Tacsimate, 5.5–7% isopropanol, pH 6.5, 301 K; V18 with PEGylated graphene nucleant 2.0 Å, V18 and E18 without 2.4 Å
[2] = biological target: B1; experiment: as above; settings: both partners purified

Binder | binding result [1] | binding result [2]
B1 | binds | 
ParE30 metal binding TOPRIM domain of S. pneumoniae topo IV (domain or fragment, Streptococcus pneumoniae, residues 2-245 of the printed fusion; In the crystals this domain stood on one chain with ParC55, joined through one extra histidine, as the fusion protein m1; also called ParE TOPRIM domain; ParE domains; source: E. coli BL21(λDE3) pLysS, purified to >95% homogeneity (as part of the ParE30-ParC55 fusion protein)) MKNKKDKGLLSGKLTPAQSKNPAKNELYLVEGDSAGGSAKQGRDRKFQAILPLRGKVINTAKAKMADILKNEEINTMIYTIGAGVGADFSIEDANYDKIIIMTDADTDGAHIQTLLLTFFYRYMRPLVEAGHVYIALPPLYKMSKGKGKKEEVAYAWTDGELEELRKQFGKGATLQRYKGLGEMNADQLWETTMNPETRTLIRVTIEDLARAERRVNVLMGDKVEPRRKWIEDNVKFTLEEATVF |  | binds
